Experimental data from paper PMC12364711.

Biological target: superGmFLS2, C-terminal mEGFP (soybean (Glycine max))

In the case of “NbBAK1 (BRASSINOSTEROID … 1-ASSOCIATED KINASE 1 of Nicotiana benthamiana), C-terminal 4xHA (receptor)”, the total flg22^Rso-induced ROS production in N. benthamiana fls2 leaves, against wild-type GmFLS2b is reported as over 3 fold.
